The values below come from US20050239140A1 (Janssen / Centocor, published 2005).

For experiment [1], the target named is T1, murine Tissue Factor in murine brain extracts (murine, UniProt P20352 29-294).
T1 sequence (looked up): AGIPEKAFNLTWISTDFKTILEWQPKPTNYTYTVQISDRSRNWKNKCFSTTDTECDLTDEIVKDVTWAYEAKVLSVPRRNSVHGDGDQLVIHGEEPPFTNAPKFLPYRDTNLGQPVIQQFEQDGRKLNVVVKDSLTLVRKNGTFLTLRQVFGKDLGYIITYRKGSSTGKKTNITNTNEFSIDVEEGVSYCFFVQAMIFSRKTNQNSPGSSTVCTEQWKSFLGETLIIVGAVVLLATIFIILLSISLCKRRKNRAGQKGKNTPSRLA
The experiment in a line: cell-based or functional assay.

Experiment [2] has as its target T2, murine Tissue Factor on B6F10 melanoma cells (murine, UniProt P20352 29-294).
T2 construct: whole, on cells; also called cell-associated mTF
T2 sequence (looked up): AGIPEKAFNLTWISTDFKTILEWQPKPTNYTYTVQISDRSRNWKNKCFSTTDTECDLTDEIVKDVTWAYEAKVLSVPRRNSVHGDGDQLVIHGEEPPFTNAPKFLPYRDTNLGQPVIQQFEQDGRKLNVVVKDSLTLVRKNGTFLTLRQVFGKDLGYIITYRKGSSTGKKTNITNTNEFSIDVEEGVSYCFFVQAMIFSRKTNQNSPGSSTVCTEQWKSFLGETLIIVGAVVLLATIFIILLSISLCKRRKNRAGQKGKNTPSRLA
The experiment in a line: FACS on B6F10 melanoma cells that express mTF.

The EC50 is the midpoint of the concentration-response curve. The low end stands for higher potency in that assay, the high end for lower potency in that assay.

B1: PHD103 Fab (Fab, V domains shown)
VH: QVQLVQSGAEVKKPGESLKISCKGSGYSFSNSWIAWVRQMPGKGLEWMGGIIGPGHSYTKYSPSFQGQVTISADKSISTAYLQWSSLKASDTAMYYCARINMGYFDYWGQGTLVTVSS
VL: DIELTQPPSVSVAPGQTARISCSGDSLGLKKFVSWYQQKPGQAPVLVIYDDSNRPSGIPERFSGSNSGNTATLTISGTQAEDEADYYCGTYDQTIGHDVVFGGGTKLTVLG
With B1, the “EC50 Conc. (ug/ml), inhibition of fibrin clot formation in human plasma with murine brain extracts as source of mTF” value (“EC50 Conc. (ug/ml), inhibition” for short) in experiment [1] stood at 63.3 µg/mL.

B2: PHD127 Fab (Fab, V domains shown)
VH: QVQLVQSGAEVKKPGESLKISCKGSYSFTNSWISWVRQMPGKGLEWMGIIDPDDSYTSYSPSFQGQVTISADKSISTAYLQWSSLKASDTAMYYCARGAGYGRMFGDVWGQGTLVTVSS
VL: DIELTQPPSVSVAPGQTARISCSGDNLGSYYASWYQQKPGQAPVLVIYQDDNRPSGIPERFSGSNSGNTATLTISGTQAEDEADYYCGAYTYSTSWVFGGGTKLTVLG
notes: HuCAL Fab; The assignment of 8 (VH) and 9 (VL) to PHD127 follows the order of listing
The molecule B2 returned an EC50 in experiment [2] of 4.35 nM. Also, the “EC50 Conc. (ug/ml), inhibition” value in experiment [1] was 0.82 µg/mL.

B3: PHD104 Fab (Fab, V domains shown)
VH: QVQLVQSGAEVKKPGESLKISCKGSYSFTSNWIGWVRQMPGKGLEWMGWIYPSDSMTRYSPSFQGQVTISADKSISTAYLQWSSLKASDTAMYYCARYLFGLFDNWGQGTLVTVSS
VL: DIELTQPPSVSVAPGQTARISCSGDNLGSYYVSWYQQKPGQAPVLVIYNDNNRPSGIPERFSGSNSGNTATLTISGTQAEDEADYYCATYDSSTDVFGGGTKLTVLG
For B3, in experiment [1], the “EC50 Conc. (ug/ml), inhibition” value came to 23.8 µg/mL.

B4: PHD126 Fab (Fab, V domains shown)
VH: QVQLVQSGAEVKKPGESLKISCKGSYSFSNYWIGWVRQMPGKGLEWMGFIDPDDSDTNYSPSFQGQVTISADKSISTAYLQWSSLKASDTAMYYCARALYMQGGSFDSWGQGTLVTVSS
VL: DIELTQPPSVSVAPGQTARISCSGDNLGSYYVSWYQQKPGQAPVLVIYRDTDRPSGIPERFSGSNSGNTATLTISGTQAEDEADYYCQSYDYGVSNQVFGGGTKLTVLG
Take B4: in experiment [1], the “EC50 Conc. (ug/ml), inhibition” value came out at 0.23 µg/mL.
